From patent US20150166643A1 (Alexion, published 2015)

Experiments:
[1] = biological target: T1, human factor B (purified, Complement Technology A135) (human, UniProt P00751 26-764); test: BLI (Octet), biotinylated factor B on streptavidin biosensor, Fab at 25 nM
T1 construct: also called fB; human complement factor B
Procedure: Binding kinetics of TA106 and TA106 S33A Fab (CLS016) to Factor B were analyzed using a FortéBio® Octet® biosensor (FortéBio, Inc.) in a similar protocol as described previously. In one exemplary experiment, Factor B (Complement Technology) was biotinylated at a 1:10 ratio and coupled to a streptavidin biosensor at a concentration of 5 μg/mL for a loading time of 600 seconds. Biosensors were briefly dipped in 1×KB as a wash for 30 seconds. Associations with a titration series of Fab with a concentration range from 100 to 3 nM (diluted in 1×KB) were carried out for 600 seconds. Fabs were dissociated from the biosensor by immersing the biosensor in 1×KB during the 600 second dissociation phase. As depicted in FIGS. 19 and 20, both TA106 Fab and TA106-derivative S33A Fab (CLS016) bound to Factor B at various concentrations, resulting in nearly identical association and dissociation profiles. Kinetic assessments using partial local fit parameters yielded identical values for KD/kₐ/Kd at each concentration tested.

[2] = biological target: T1, human factor B (purified, Complement …); test: SPR (Biacore), TA106 Fab captured on anti-Fab surface, soluble factor B 3.1-100 nM flowed; Chi2 0.206
Excerpt: Binding kinetics of TA106 Fab and variant S33A Fab (CLS016) were further characterized using Surface Plasmon Resonance (SPR) technology. In one exemplary experiment, both Fabs were captured on chips of a Biacore 3000 analyzer and samples of human factor B of different concentrations were flowed as the antigen over the surface to model soluble human factor B binding, using protocols recommended by the manufacturer and described previously in the instant disclosure. […] In another exemplary experiment, the affinities of both Fabs were also measured by reversing the orientation of the previous experiment. Specifically, human factor B was directly coupled to one flow cell of a CM5 chip. The second flow cell was used as a blank reference with no coupled ligand. CLS016 or TA106 Fab was then flowed on both flow cells. Concentrations between 0.19 to 25 nM were run with duplicates. The surface was regenerated between each cycle.

[3] = biological target: T1, human factor B (purified, Complement …); test: SPR (Biacore), factor B bound directly to the chip, free TA106 Fab flowed; Chi2 0.901
Excerpt: The difference in the two Biacore data sets could be explained as either that the conformation of factor B changes when binding to the surface or that not all commercial factor B is active. This later Biacore experiment (with a fixed concentration of factor B bound to the chip) removed the factor B concentration from the calculation.

T1 sequence (P00751 26-764): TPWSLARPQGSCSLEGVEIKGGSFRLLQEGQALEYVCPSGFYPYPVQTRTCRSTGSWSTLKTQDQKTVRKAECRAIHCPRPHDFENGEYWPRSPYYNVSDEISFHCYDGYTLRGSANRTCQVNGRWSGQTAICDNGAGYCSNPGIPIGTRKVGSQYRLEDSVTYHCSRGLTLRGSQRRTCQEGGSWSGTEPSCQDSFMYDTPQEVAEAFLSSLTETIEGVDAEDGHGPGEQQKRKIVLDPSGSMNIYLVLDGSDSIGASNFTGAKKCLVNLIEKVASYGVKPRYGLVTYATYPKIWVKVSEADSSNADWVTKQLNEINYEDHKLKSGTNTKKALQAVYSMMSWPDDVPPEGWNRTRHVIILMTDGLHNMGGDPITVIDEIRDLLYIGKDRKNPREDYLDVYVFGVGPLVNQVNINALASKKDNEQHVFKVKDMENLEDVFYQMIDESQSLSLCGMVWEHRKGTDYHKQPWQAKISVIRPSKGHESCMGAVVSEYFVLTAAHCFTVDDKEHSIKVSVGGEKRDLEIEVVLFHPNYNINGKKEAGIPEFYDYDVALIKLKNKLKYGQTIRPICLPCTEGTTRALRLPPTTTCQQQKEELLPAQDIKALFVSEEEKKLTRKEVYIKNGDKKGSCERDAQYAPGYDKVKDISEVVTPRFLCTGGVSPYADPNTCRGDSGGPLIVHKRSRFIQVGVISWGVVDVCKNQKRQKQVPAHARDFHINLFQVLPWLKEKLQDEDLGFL

B1: TA106 Fab (humaneered anti-factor B Fab, expressed in E. coli) (Fab, V domains shown)
VH: QVQLVQSGAEVKKPGASVKVSCKASGYSFTDYYMTWVRQAPGQGLEWMGWINPNSGGTKYAQKFQGRVTMTRDTSISTAYMELSRLRSDDTAVYYCARGYYANSAWFAYWGQGTLVTVSS
VL: DIVMTQSPDSLAVSLGERATINCKSSQSLLNSSTSKNYLAWYQQKPGQPPKLLIYWASTRESGVPDRFSGSGSGTDFTLTISSLQAEDVAVYYCKQVYNLPWTFGQGTKLEIKR
notes: Fab made in E. coli by Xoma, not glycosylated; also called Fab TA106; TA106 wild type Fab
Which Kd [1] does the source give for B1 here?
Its Kd is 22.4 nM.

What about the koff [1] of the same binder?
Its koff is 0.00352 s⁻¹.

What about the kon [1] of the same binder?
Its kon is 157000 M⁻¹ s⁻¹.

And the koff [2]?
Its koff is 0.00338 s⁻¹.

What about the kon [2] of the same binder?
The kon was 136000 M⁻¹ s⁻¹.

And the koff [3]?
Its koff is 0.00305 s⁻¹.

And the kon [3]?
Its kon is 2.2e+06 M⁻¹ s⁻¹.
